Our source for the protein production values is a protein production outcome set (Wang et al. 2014).
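Further: failed if final PepcDB status was selected cloned or expressed and not failed if soluble or beyond.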

The data set in a line: label from the status in PepcDB records.
Regarding “MGNPADQKDSKAKQKTEVFPVTIDDASNQDVTIKKEPKKIVSLMPSNTEITYALGLGDKVVGVTTNDTYPKEVKKVEKVGDMNVNVEKVISLKPDLVLAHESSMSASADAIKQLKDAGITVLTVNDAQSFSEVYKSIEMIGEAGGAEKKADQLVKSMKSDLKDIQEKAKTISKDEEKSVFIEVSPDPDIYTTGKDTFMNEMLNVIHAKNAAADQTGWVQMTDEAIVKLNPDAIVTTDGVKAKAVEKRDGWSEINAVKHHRVYDVDPDLVTRSGPRLIEGVEELAESIYPDTFKE”, the protein production result was “failed”.
For “MGNRSTADADGLLAGRGPAAGASAGASAGLAGQGAAALVGGVLLIGAVLAGNSLVCVSVATERALQTPTNSFIVSLAAADLLLALLVLPLFVYSEVQGGAWLLSPRLCDALMAMDVMLCTASIFNLCAISVDRFVAVAVPLRYNRQGGSRRQLLLIGATWLLSAAVAAPVLCGLNDVRGRDPAVCRLEDRDYVVYSSVCSFFLPCPLMLLLYWATFRGLQRWEVARRAKLHGRAPRRPSGPGPPSPTPPAPRLPQDPCGPDCAPPAPGLPRGPCGPDCAPAAPGLPPDPCGPDCAPPAPGLPQDPCGPDCAPPAPGLPRGPCGPDCAPPAPGLPQDPCGPDCAPPAPGLPPDPCGSNCAPPDAVRAAALPPQTPPQTRRRRRAKITGRERKAMRVLPVVVGAFLLCWTPFFVVHITQALCPACSVPPRLVSAVTWLGYVNSALNPVIYTVFNAEFRNVFRKALRACC”, the protein production entry was “failed”.
In the case of “MGNSITVKRKRAKVMKIDGETFRIKTPVTAREVTADYPGYVLLDSQAVKHFGVRSKPLEPNQTLKPKKTYFLVELPKLPPETTAVDTENKLPYRRVMSGIHVGAKERLDMLMLSRRTVSDVTIGRSDGGDGFGPELGPGHTSVRLRLPRSQITKLMEENNNDASAIAEKILGIYMERSGELGGGRGGVDGRRELGSGEIKAREVSFAGEGGRELPVLWSRSGK”, the protein production result is reported as “failed”.
“MGPERHLSGAPARMATVVLGGDTMGPERIFPNQTEELGHQGPSEGTGDWSSEEPEEEQEETGSGPAGYSYQPLNQDPEQEEVELAPVGDGDVVADIQDRIQALGLHLPDPPLESEDEDEEGATALNNHSSIPMDPEHVELVKRTMAGVSLPAPGVPAWAREISDAQWEDVVQKALQARQASPAWK”: the protein production result is on record as “failed”.
For “MGPKRRQLTFREKSRIIQEVEENPDLRKGEIARRFNIPPSTLSTILKNKRAILASERKYGVASTCRKTNKLSPYDKLEGLLIAWFQQIRAAGLPVKGIILKEKALRIAEELGMDDFTASNGWLDRFRRRRS”, the protein production entry is reported as “not failed”.
As for “MGPLVKEKYEEVEQIPLKKPHIVSLIGGFGYREPIFRKVLTTAALDSGINYTLISGPSLDPSKFKEIPKNVQILRFVGDTFPYIRSSDAVIAPGGHSTMMEALSFGTPILSFPDEGHSEQENNAAVIEEEGYGRMLSYSTPPEVILECIREVLEDKKYRDKVKRLQRLASELDGLEHHHHHH”, the protein production entry is “not failed”.
As for “MGQELLVRAHEPETADIEIIPVTTVVQVTEQNSTGDAAVALDTVTVVGERYVDDIVATLTTLRVGMAVLLQRESGNQYDDNAISVWTLQHAKLGYIARYQNQPYATLMDQGQRLYGIVTVLDQQKQHLELMLWRTTAVPSPIEALEHHHHHH”, the protein production entry was “failed”.
For “MGQFYCLHCDRYFSNVSVRDDHFKTKKHKKRVNMMMGQAPHSQLDADLAGGMGMPDNGPKLMSNLVFTELRKPETEDLPGMGQFNCLLCHRNFSNASVMDYHFKTKKHKKRVKKIERPAPHSQLDADLAGGMGMPDNGPKLMSA” the value was “not failed”; for “MGQHEPGAALGRMVRAAWSETLGEDHPDTLAAANRLAGCLVGLRKYAEARDLFADLLPRCERALGWEDPLTLTVVSNLGGCLSALGAHEEARRQCEDIVRRSRLALGPDDPRTLRAASNLAVFLRRLDDHQAALAVWEDTLLRYRRVLGEDHPDTLHAKRDLVALLRAMGEHDRAHAVAGEPLEHHHHHH”, “failed”.
For “MGQVEVIDRRQSVFGDDIQLQKRSSSYEIISNGVFLMSTENGRSEREMVTLGAQHMKNAVHSVLIGGLGVGITADEAVHLNDHVQVHVVEIEPSVVEWQYRYLYPFSNQALEHERTAIIISDIQQWLRTNERTYDLICLDTDNGPDWMVHKQNASLYGKIGLELVRERVRVGGAVSFWSASASESFLHELETLFDRVYEHAVSISHTLPPDYVYVACRDLEHHHHHH” the value was “not failed”; for “MGRKRKHSETEAPAPVKKSDEPAPDRPKRTLLGWKDKSEGEAEKAKALTSSGFKNKEKVLVTCSRRISFRYRSLMLNIVSLLPHCKKDSKVEAKSSKGATLNELIELKNSNSCLFFECRKHKDLYMWMVKSPNGPSVKFLVKAVHAMEEMKLTGNHLKGSRPLLTFSSNFDKDAHWKLLKEMLTQVFGIPKEHRKSKPYHDHVFVFSIVDEHIWFRNYQISVPHNESDKIAKGGLDKMTLIEVGPRFCLNPIKIFAGSFGGPTLYENPLYVSPNQIRALEKRNKAGKFAKKIKAKTRKKMHELSNPLEPDEFADMWKDDE”, “failed”; for “MGRMSEKLGQDIKQSIFKVPPLIQKSDIDPEHCRVSAQLDDNVDDNIPLRVMLLLMDEVFDLKDRNQWLRRNIKNLLQQLIKATYGDTINRKIVDHVDNMTSPEQVSDYVKRFRDSYWPNGILAETPPRRDKNLRMRTRVAAKTTLLGIMPDELKHIIGADTTRKGILRVFEMFQHQPLNRRLVYVFLEGFLETLFPQYKFPELFEKLHSRSPRVLKYSHKLRSLQKR”, “failed”.
“MGRNQGAYLDPSESILMLMVAFLLVLLNAFFVLSEFALVKVRKTRLEELVKIGNSNAKLALKMSQRLDTYLSATQLGITLSSLALGWVGEPAIAKLLAALFESMDLRENPIFIHSMSVVIAFLSITFLHVVLGEIVPKSLAIAKSEKATLFAARPLHVFWVVFYPVVRLFDVIAHFFLKKMGINPKEHDGTHSEEELKIIVGESLREGIIDSVEGEIIKNAXDFSDTSAKEIMTPRKDMVCLDEENSYEENIDIVLKGHFTRYPYCKGSKDNIIGMVHIRDLLSRSIFTPKMHDFNQIVRKMIIVPESASISQILIKMKKEQIHTALVIDEYGGTAGLLTMEDIIEEIMGEISDEYDLKQEGINKLEEGVFELEGMLDLESVEEALHIEFDKECEQVTLGGYVFSLLERMPMEGDTIVSHGYSFEVLSVDGARIKRLKAVKQDQGENEA”: the protein production entry is “failed”.
With “MGRVYLVGAGPGDPELLTLKAYRLLKEAPVVLYDRLVDERVLALAPGEKVYVGKEEGESEKQEEIHRLLLRHARAHPFVVRLKGGDPMVFGRGGEEVLFLLRHGVPVEVVPGVTSLLASGLPLTHRGLAHGFAAVSGVLEGGGYPDLRPFARVPTLVVLMGVGRRVWIAKELLRLGRDPREPTLFVERASTPKERRVHARLEEVAEGKVEVRPPALWILGEVVRVFAEKEAPVDALALGG”, the protein production entry is “not failed”.
Turning to “MGSGESKANTAETPEVLDVKLTGPEKVNPGESAAYEAAVSYGDEAVTDADEVEFEVWKEGEKDASQMFKVKQEKGVYRLETTFKEDGVYTVQSHVTAKKQHSMPTLKVQVGDADAASNQSEEEHSHHHLEHHHHHH”, the protein production entry is “not failed”.
For “MGSLGFLAGGVMPLEQLKQELSEVKGVFGVNLFRPQTDAPKPSDIDELAGLLSSAFRQFGLDEPTVPTPDLSNGWEAKFEAVLAAKPAVFSCTFGIFSAEEFARIKATGIEAWVTVTNPEDALAAQKAGANALVVQGPEAGGHRSTWSIEVEPDERDLKTLLAAVKQAGVYLPLIAAGGLSTSADVAAILEAGASAASCGSAFLLSDEAGTSSLNREILDAAPALGLESVSSRAFSGRYARGVETRFTRSNEGLPPLYPYLNPMITSLRKVAGSAGNWDYAYCLVGVGLESIAKGSAKQILESLTPSALEHHHHHH”, the protein production result is listed as “failed”.
With “MGSPASASHEALRHILDAGASMGSLQGLDEAQQQALYAIAHGAYEQGRYADALKMFCLLVACDPLEARYLLALAAAAQELGLYEHALQQYAAAAALQLDSPRPLLHGAECLYALGRRRDALDTLDMVLELCGSPEHAALRERAESLRRSYARALEHHHHHH”, the protein production result is “failed”.
“MGSPNSLSRRGFCLCCVGGATFAASAGWLTPREAYAEARGLVSLIKDSAAISPITASRLRNNISVLEGSGGNIAVLTGSDGKLLVDAGIRVSRAQLTNALAGLGTDPVTHLVNTHWHFDHADGNEWLHSAGAKIIAHENTRKHLLGVQRVEDWDYNFLPLGPGGIPSEVFAGSHKLGLNGASISLKYFGPAHTDSDVSVTFVEANIVHVGDTFWNGIYPFIDYSTGGSIDGMIAACDANLAATDKDTIIIPGHGKPVSNKAELQAFRDMLVAIRDNVARLKAQGRTWDETVAAKPTAAFDAQWGQFVIDPGFFTRLVYQGV”: the protein production entry is given as “failed”.
With “MGSRDLISSLPDEILGKVLSLLPTKRAASTAVLSKRWNNLPALVDKLDINDAIGGPGGFPEFIDKTLALLTNSTTIKRTSLNNEFQYGESQVNTWIRSFLERGCLQLYLNAQSLYTIDTEFFTSNTLVELTITGGFSPDGLLPPGGVFFPKLKTLSLVLMTFVDSDMYELFISGCPLLEEFLLRNDEIEIPPVWNALVSSPSIKRLTIVHHFPNYREAHDGCWFRTPNLVYLDYSSYVPDWYEVDLGSLVEARLDLRSWERLRDEKAGGYGDCDSVYDDEEYPDDPILGDVTNLVTGLSNIKTLHLSPDSLEVSFPYLLLFQFEVHSSLQSLLIV”, the protein production entry was “failed”.
Regarding “MGSRTHARKDASSEALQAPRLRTLLLTDLCDSTALVERIGDNAAAALFREHDRLVVKLQQHWRGRLIDRSDGLLLLFDRPIDGLGFALDYARGLKTMGDAHALTLCARQGLHVGEVLTWRNSDEAISIGAKPLEVEGLAKPTAARLMSMARPGQILLSAVAESLTHRAARELGNRADRLLWKSHGRWRFKGMPTPMEIYEVGEVGLTPLRMPKNSAKAWRDVPLWRRPAALVAEVGVVLAVGIAAWFFIRPQPAIAFASRDWVVVGDVRNLTGNTVLDGALEQALRISLEQSRYVNVLSDMKVRDTVTRMKRDPNTIVLDRSVASEVALRDGASAVLLPTVAEVGGKLRFSVELVDPRTQTTVYSEFVQGDGLPSALSSVDQVTRKLRQGLGEMVASIDKNSVPLPAVTTSSLDALRAYALGVEATAKGRWREGLELFDRAVGIDPTFALAYLGAARIKVAVSDRNGALPYLDNAVRFRQRLPARDQLYLDAWIAELRAVDTALPLWRTLASLYPDNFAGAANTSWHLFVANRFADALPYAQAADVVQDPLRSIASDRIGRILMAQGKVEAALQRFENSSDGDRAGPLRRQADALAVLGRYAEEQRTLDRIVDNGYANDDVVPLIDRTSIALDQANWANANAAVAQALERSKHTDDFSYRQFLVIGATTAAITGETASVGPGMSSTFEALVGAIKANGPAEPNLQDDAAMVLSLVSQAQRNGDDQFTARALSAIKPALAHETPVLADLRAIVEAQHLALSGDRVAAIARLPPGPDDLLQMRVTLYTLLHDSGRHAEALQQARWLSLQRGRAYIEANASQTLQPLNVAHTRLARLWTAESLYALGRTQEAREQAQAFVRAWPASHLPAYLRSRVERILSDSKAKITV”, the protein production entry is “failed”.
“MGSSHHHHHHENLYFQGTSVMITENQSVNAKGKYEKMNRLYDTNKLHQYYSGPSYELTNVSGQSQGYYDSNVLLFNQQNQKFQVFLLGKDENKYKEKTHGLDVFAVPELVDLDGRIFSVSGVTKKNVKSIFESLRTPNLLVKKIDDKDGFSIDEFFFIQKEEVSLKELDFKIRKLLIKKYKLYEGSADKGRIVINMKDENKYEIDLSDKLDFERMADVINSEQIKNIEVNLK”: the protein production result is listed as “not failed”.
As to “MGSSHHHHHHSSGLVIRGSHMRIALMQHTARPLDPQHNLDLIDDAAARASEQGAQLLLTPELFGFGYVPSQICAQVSAEQVDAARSRLRGIARDRGIALVWSLPGPEGPEQRGITAELADEHGEVLASYQKVQLYGPEEKAAFVPGEQPPPVLSWGGRQLSLLVCYDVEFPEMVRAAAARGAQLVLVPTALAGDETSVPGILLPARAVENGITLAYANHCGPEGGLVFDGGSVVVGPAGQPLGELGVEPGLLVVDLPDQSQDAGSDSADYLQDRRAELHRNWL”, the protein production entry is on record as “not failed”.
